Data from US20250223342A1 (ARGENX, published 2025).

Experiments:
human serum albumin [1] = target: T1, human serum albumin (human, UniProt P02768 25-609); experiment: SPR (Biacore 3000), HSA on chip, Fc-ABDEG fusion, pH 5.5
T1 construct: also called HSA

[2] = target: T2, cynomolgus monkey serum albumin (cynomolgus monkey, UniProt A2V9Z4 25-608); experiment: SPR (Biacore 3000), cyno albumin on chip, Fc-ABDEG fusion, pH 5.5
T2 construct: also called cyno albumin; CSA

[3] = target: T2, cynomolgus monkey serum albumin; experiment: SPR (Biacore 3000), cyno albumin on chip, Fc-ABDEG fusion, pH 7.4
[4] = target: T2, cynomolgus monkey serum albumin; experiment: SPR (Biacore 3000), cyno albumin on chip, Fc-ABDEG fusion, ratio of R0
human serum albumin [5] = target: T1, human serum albumin; experiment: SPR (Biacore 3000), HSA on chip, Fc-ABDEG fusion, ratio of R0
human serum albumin [6] = target: T1, human serum albumin; experiment: SPR (Biacore 3000), HSA on chip, Fc-ABDEG fusion, pH 7.4
human serum albumin [7] = target: T1, human serum albumin; experiment: SPR (Biacore), off-rate pH 7.4 over pH 5.5
human serum albumin [8] = target: T1, human serum albumin; experiment: SPR (Biacore), VHH clone, pH 7.4
human serum albumin [9] = target: T1, human serum albumin; experiment: SPR (Biacore), VHH clone, pH 5.5
[10] = target: T3, isolated DII of serum albumin (UniProt P02768 211-403, limits assumed); experiment: DII binder column of the clone screening
T3 construct: domain: DII

[11] = target: T2, cynomolgus monkey serum albumin; experiment: species reactivity, screening by ELISA and Biacore
[12] = target: T2, cynomolgus monkey serum albumin; experiment: SPR (Biacore 3000), albumin on chip, Fc-ABDEG fusion

| Binder | R0 pH 5.5 (human serum albumin [1]) [RU] | R0 pH 5.5 [2] [RU] | R0 pH 7.4 [3] [RU] | R0 5.5/7.4 [4] | R0 5.5/7.4 (human serum albumin [5]) | R0 pH 7.4 (human serum albumin [6]) [RU] | Ratio Kd (human serum albumin [7]) | koff (human serum albumin [8]) [s⁻¹] | Kd (human serum albumin [9]) [nM] | koff (human serum albumin [9]) [s⁻¹] | binding result [10] | binding result [11] | binding result [12] |
| --- | --- | --- | --- | --- | --- | --- | --- | --- | --- | --- | --- | --- | --- |
| 11C03 CDR1-V2 fused at the C-terminus of Fc-ABDEG (Fc fusion, not shown: a dimerising Fc or GST; small tags and cut ends) QLQVVESGGGLVQAGGSLRLSCAASERTFVAAPMGWFRQAPEKEREFVAGISWFAGATTDYADSVEGRFTISRDNAKNTAYLQMNNLKPEDTAVYYCAISHQLPGGRPGRDMDSYSYWGHGTQVTVSS | 108 | 37.8 | 2.11 | 17.9 | 19 | 5.82 | – | – | – | – | – | – | – |
| 11C03 CDR2-V12 fused at the C-terminus of Fc-ABDEG (Fc fusion, not shown: a dimerising Fc or GST; small tags and cut ends) QLQVVESGGGLVQAGGSLRLSCAASERTFVAYPMGWFRQAPEKEREFVAGISWFAGATTDAADSVEGRFTISRDNAKNTAYLQMNNLKPEDTAVYYCAISHQLPGGRPGRDMDSYSYWGHGTQVTVSS | 38.7 | 26 | 1.35 | 19.3 | 26 | 1.5 | – | – | – | – | – | – | – |
| 11C03 CDR2-V10 fused at the C-terminus of Fc-ABDEG (Fc fusion, not shown: a dimerising Fc or GST; small tags and cut ends) QLQVVESGGGLVQAGGSLRLSCAASERTFVAYPMGWFRQAPEKEREFVAGISWFAGATADYADSVEGRFTISRDNAKNTAYLQMNNLKPEDTAVYYCAISHQLPGGRPGRDMDSYSYWGHGTQVTVSS | 136 | 105 | 5.65 | 18.6 | 16 | 8.6 | – | – | – | – | – | – | – |
| 11C03 CDR2-V5 fused at the C-terminus of Fc-ABDEG (Fc fusion, not shown: a dimerising Fc or GST; small tags and cut ends) QLQVVESGGGLVQAGGSLRLSCAASERTFVAYPMGWFRQAPEKEREFVAGISWAAGATTDYADSVEGRFTISRDNAKNTAYLQMNNLKPEDTAVYYCAISHQLPGGRPGRDMDSYSYWGHGTQVTVSS | 12.3 | 0 | 1.1 | – | 12 | 1.06 | – | – | – | – | – | – | – |
| 11C03 CDR1-V3 fused at the C-terminus of Fc-ABDEG (Fc fusion, not shown: a dimerising Fc or GST; small tags and cut ends) QLQVVESGGGLVQAGGSLRLSCAASERTFVAYAMGWFRQAPEKEREFVAGISWFAGATTDYADSVEGRFTISRDNAKNTAYLQMNNLKPEDTAVYYCAISHQLPGGRPGRDMDSYSYWGHGTQVTVSS | 109 | 103 | 5.2 | 19.8 | 21 | 5.1 | – | – | – | – | – | – | – |
| 11C03 CDR2-V7 fused at the C-terminus of Fc-ABDEG (Fc fusion, not shown: a dimerising Fc or GST; small tags and cut ends) QLQVVESGGGLVQAGGSLRLSCAASERTFVAYPMGWFRQAPEKEREFVAGISWFAAATTDYADSVEGRFTISRDNAKNTAYLQMNNLKPEDTAVYYCAISHQLPGGRPGRDMDSYSYWGHGTQVTVSS | 4.57 | 0 | 1.09 | – | 4 | 1.12 | – | – | – | – | – | – | – |
| 11C03 CDR2-V2 fused at the C-terminus of Fc-ABDEG (Fc fusion, not shown: a dimerising Fc or GST; small tags and cut ends) QLQVVESGGGLVQAGGSLRLSCAASERTFVAYPMGWFRQAPEKEREFVAGASWFAGATTDYADSVEGRFTISRDNAKNTAYLQMNNLKPEDTAVYYCAISHQLPGGRPGRDMDSYSYWGHGTQVTVSS | 15.1 | 5.22 | 1.2 | 4.35 | 12 | 1.22 | – | – | – | – | – | – | – |
| 11C03 CDR2-V3 fused at the C-terminus of Fc-ABDEG (Fc fusion, not shown: a dimerising Fc or GST; small tags and cut ends) QLQVVESGGGLVQAGGSLRLSCAASERTFVAYPMGWFRQAPEKEREFVAGIAWFAGATTDYADSVEGRFTISRDNAKNTAYLQMNNLKPEDTAVYYCAISHQLPGGRPGRDMDSYSYWGHGTQVTVSS | 68.5 | 54.2 | 2.6 | 20.8 | 28 | 2.4 | – | – | – | – | – | – | – |
| 11C03 CDR2-V4 fused at the C-terminus of Fc-ABDEG (Fc fusion, not shown: a dimerising Fc or GST; small tags and cut ends) QLQVVESGGGLVQAGGSLRLSCAASERTFVAYPMGWFRQAPEKEREFVAGISAFAGATTDYADSVEGRFTISRDNAKNTAYLQMNNLKPEDTAVYYCAISHQLPGGRPGRDMDSYSYWGHGTQVTVSS | 12.3 | 0 | 2.77 | – | 15 | 0.826 | – | – | – | – | – | – | – |
| 2A10 (VHH) VHH: EVQLVESGGGLVQAGGSLRLSCAASGRTFSSYAMGWFRQAPGKEREFVATINWSGGSTYYADSVKGRFTISRDNAKNTVYLQMNSLKPEDTAVYYCAADLYGPGFVLSMEYDYWGQGTQVTVSS | – | – | – | – | – | – | 3.3 | 0.011 | 96.9 | 0.0034 | no binding | binds | – |
| 1E04 (VHH) VHH: QLQLVESGGGLVQTGGSLRLSCAASGRTFSNYNAGWFRQVPGKEPEFVAAINWSGGTTYYADSVKGRFTISRDNAKNTVYLQMNSLKPEDTAVYYCAADPDWSILNPREYDYWGQGTRVTVSS | – | – | – | – | – | – | 2.1 | 0.0054 | 55.2 | 0.0026 | no binding | binds | – |
| 4G12 (VHH) VHH: QLQLVESGGGLVQAGGSLRLSCVASGRSFSTYGMGWFRQAPGAEREFAAAINWKGDRYYADSVKGRFTISRDNAKNTVFLEMNSLKPEDTGVYYCAADSDGSAFSRRLEYDYWGQGTQVTVSS | – | – | – | – | – | – | 1.8 | 0.0033 | 12.4 | 0.0019 | no binding | binds | – |
| 2B03 (VHH) VHH: QLQLVESGGGLVQAGGSLRLSCAASGRAISSYVMAWFRQAPGKEREFVTSINWSGGSTYYAHSVKGRFTISRDNAKNTVYLQMNTLKPEDTAVYYCAADLYGLGYEVMSYDYWGQGTQVTVSS | – | – | – | – | – | – | 8.7 | 0.025 | 16.6 | 0.0029 | no binding | binds | – |
| 2H11 (VHH, also called 2H11 parental (VHH)) VHH: ELQVVESGGGLVQAGGSLRLSCAASGRTFRSNTMGWFRQAPGKEREFVAAITWSGGTTYYADSVKGRFAISGDNAKNTVYLQMNSLKPEDTAVYYCAAEGPKWEPWNGIYHPADFGSWGQGTQVTVSS | – | – | – | – | – | – | 81.9 | 0.052 | 6.84 | 0.00063 | – | – | – |
| 2C10 (VHH) VHH: QLQLVESGGGLVQAGGSLRLSCAASGRTFSSYAMGWFRQAPGKEREFVAVISWSGGSTYYADSVKGRFTISGDNAKNTVYLQMNSLKPEDTAVYYCATEGPKWEPYNGIYSPADFGSWGQGTQVTVSS | – | – | – | – | – | – | 1.3 | 0.0056 | 49.3 | 0.0045 | no binding | – | – |
| 2H11-v8 fused at the C-terminus of Fc-ABDEG (two-armed Fc-ABDEG-20GS-Cterm fusion) (Fc fusion, not shown: a dimerising Fc or GST; small tags and cut ends) VHH: ELQVVESGGGLVQAGGSLRLSCAASGRTFRSNTMGWFRQAPGKEREFVAAITWSGGTTYYADSVKGRFAISGDNAKNTVYLQMNSLKPEDTAVYYCAAEGPKWEPANGIYHPADFGSWGQGTQVTVSS | – | – | – | – | – | – | – | – | – | – | – | – | no binding |
| 2H11-v3 fused at the C-terminus of Fc-ABDEG (two-armed Fc-ABDEG-20GS-Cterm fusion) (Fc fusion, not shown: a dimerising Fc or GST; large carriers; small tags and cut ends) VHH: ELQVVESGGGLVQAGGSLRLSCAASGRTFRSNTMGWFRQAPGKEREFVAAITWSGGTTYYADSVKGRFAISGDNAKNTVYLQMNSLKPEDTAVYYCAAEGAKWEPWNGIYHPADFGSWGQGTQVTVSS | – | – | – | – | – | – | – | – | – | – | – | – | no binding |
| 2H11-v9 fused at the C-terminus of Fc-ABDEG (two-armed Fc-ABDEG-20GS-Cterm fusion) (Fc fusion, not shown: a dimerising Fc or GST; large carriers; small tags and cut ends) VHH: ELQVVESGGGLVQAGGSLRLSCAASGRTFRSNTMGWFRQAPGKEREFVAAITWSGGTTYYADSVKGRFAISGDNAKNTVYLQMNSLKPEDTAVYYCAAEGPKWEPWAGIYHPADFGSWGQGTQVTVSS | – | – | – | – | – | – | – | – | – | – | – | – | no binding |
